Data from the nanobody polyreactivity screen of Harvey et al. (2022).

Experiment: yeast display, Sf9 membrane polyspecificity reagent, FACS + sequencing; frameworks hold sequencing errors
Method in brief: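 Sorting gates, low and high (top ~1%), were placed on anti-HA fluorescence to track expression and on streptavidin fluorescence to track reagent binding. A clone's polyreactivity label is taken from the gate it came out of. The reagent was 10% biotinylated, detergent-solubilized Sf9 membrane, applied for 1 hour at 4 °C to galactose-induced yeast display cells.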

Sequence | polyreactivity (PSR sort gate)
QVQLVESGGGLVQAGGSLRLSCAASGRIFLWYAMGWYRKAPGKERELVADISSNGGSTRYADSVKGRFAISRDNEKNTVYLQMNILKPEDTAVYYCNADVHWNRYRYGGNGYGYWGQGTQVTVSS | low polyreactivity
QVQLVESGGGLVQAGGSLRLSCAASGRIFLWYAMGWYRQAPGKERELVASITRSGVTTYYADSVKGRFTISRDNAKNTVYLQMKSLKPEDTAVYYCNKDFRGDAIKLDVNYWGQGTQVTVSS | low polyreactivity
QVQLVESGGGLVQAGGSLRLSCAASGRIFLYNAMGWYRQAPGKERELVAVISSNGGRTYYADSVKGRFTISRDNAKNTVYLQMNSLKPEDTAVYYCAAVQHYVTHMDYWGQGTQVTVSS | low polyreactivity
QVQLVESGGGLVQAGGSLRLSCAASGRIFLYNTMGWYRQAPGKERELVARISWSGGSTKYADSVKGRFTISRDNAKNTVYLQMNSLKPEDTAVYYCNAGYFTEYNSWGQGTQVTVSS | high polyreactivity
QVQLVESGGGLVQAGGSLRLSCAASGRIFLYYAMGWYRQAPGKERELVATISSGGSTHYADSVKGRFTISRDNAKNTVYLQMNSLKPEDTAVYYCAAYGYGWGLEPSTTEMDYWGQGTQVTVSS | low polyreactivity
QVQLVESGGGLVQAGGSLRLSCAASGRIFLYYTMGWYRQAPGKERELDAAITRSGGSTYYADSVKGRFTISRDNAKNTVYLQMNSLKPEDTAVYYCNRAYVRYVPMNYWGQGTQVTVSS | high polyreactivity
QVQLVESGGGLVQAGGSLRLSCAASGRIFNAYAMGWYRQAPGKERELVAAISSIGGRTYYADSVKGRFTISRDNAKNTDYLQMNSLKPEDTAVYYCAASRRSRQYRYDYWGQGTQVTVSS | high polyreactivity
QVQLVESGGGLVQAGGSLRLSCAASGRIFNFYAMGWYRQAPGKERELVAAITRGGSTYYADSVKGRFTISRDNAKNTVYLQMNSLKPEDTAVYYCNALNRYYDGDYYYWGQGTQVTVSS | high polyreactivity
QVQLVESGGGLVQAGGSLRLSCAASGRIFNGYAMGWYRQAPGKERELVAAITTSGGSTYYADSVKGRFTISRDNAKNTVYLQMNSLKPEDTAVYYCAKYYPRYAYDYWGQGTQVTVSS | low polyreactivity
QVQLVESGGGLVQAGGSLRLSCAASGRIFNHNDMGWYRQAPGKERELVAAIDGSDSSTYYADSVKGRFTISRDNAKNTVYLQMNSLKTEDTAVYYCNADTNWLYTTGKYDYWGQGTQVTVSS | low polyreactivity
QVQLVESGGGLVQAGGSLRLSCAASGRIFNIYAMGWYRQAPGKERELVAAIRGRGGSTYYADSVKGRFTISRDNAKNTVYLQMNSLKPEDTAVYYCAADSGPFYSKTQTRYGYWGQGTQVTVSS | high polyreactivity
QVQLVESGGGLVQAGGSLRLSCAASGRIFNIYAMGWYRQAPGKERELVAAISGSGGRTSYADSVKGRFTISRDNAKNTVYLQMNSLKPEDTAVYYCAADYSYYTSFRYDYWGQGTQVTVSS | low polyreactivity
QVQLVESGGGLVQAGGSLRLSCAASGRIFNLYAMGWYRQAPGKERELVAAISYSGGRTYYADSVKGRFTISRDNAKNTVYLQMNSLKPEDTAVYYCNTVRGSVRQAGVGYDYWGQGTQVTVSS | high polyreactivity
QVQLVESGGGLVQAGGSLRLSCAASGRIFNLYAMGWYRQAPGKERELVAGIRWSTGSTYYADSVKGRFTISRDNAKNTVYLQMNSLKPEDTAVDYCAVRYYCSGRYYYTYYSWGQGTLVTVSS | high polyreactivity
QVQLVESGGGLVQAGGSLRLSCAASGRIFNPNGMGWYRQAPGKERELVAVITRSGTSTYADSVKGRFTISRDNAKNTVYLQMNSLKPEDTAVYYFATRYRWTPYDYWGQGTQVTVSS | low polyreactivity
QVQLVESGGGLVQAGGSLRLSCAASGRIFNPYVMGWYRPAPGKERELVAAISSGGRTYYADSVKGRFTISRDNAKNTVYLQMNSLKPEDTTVYYCAREQYRRYSGYGYWGQGTQVTVSS | high polyreactivity

Sequence | polyreactivity (PSR sort gate)
QVQLVESGGGLVQAGGSLRLSCAASGRIFNQYCMGWYRQAPGKERELVAAIRSGDSTNYADSVKGRFTISRDNAKNTVYLQMNSLKPEDTAVYYCARDRPGDYAGYDYWGQGTQVTVSS | low polyreactivity
QVQLVESGGGLVQAGGSLRLSCAASGRIFNQYGMGWYRQAPGQEMELVAAIRSGDSTNYADSVKGRFTISRDNAKNTVYLQMNSLKPEVTAVYYCARDRPGDYAGYDYWGQGTEVTVSS | low polyreactivity
QVQLVESGGGLVQAGGSLRLSCAASGRIFNRNAMGWYRQAPGKERELVAAITRGGRTNYADSVKGRFTISRDNAQNTVYLQMNSLKPEDTAVYYCAAAYYGSHGRYDYWVQGTQVTVSS | high polyreactivity
QVQLVESGGGLVQAGGSLRLSCAASGRIFNRNVMGWYRQAPGKERELVAAISYGTGSTYYADSVKGRFTISRDNAKNTVYLQMNSLKPEDTAVYYCATRYRVRDDGEYDYWGHGTQVTVSS | high polyreactivity
QVQLVESGGGLVQAGGSLRLSCAASGRIFNRYAMGLYSQAPGKERELVAAISYTGGRTYYADSVKGRFTISRDNAKNTVYLQRNCLTPEDTAVYYCNVYVIHWDFTTSSVRRFDYWGQGTQVNVSS | high polyreactivity
QVQLVESGGGLVQAGGSLRLSCAASGRIFNRYGMGWYRQAPGKERELVAAITWRGGNTYYADSVKGRFTISRDNAKNTVYLQMNSLKPEDTAVYYCAADGGYSAYFGAYDYWGQGTQVTVSS | high polyreactivity
QVQLVESGGGLVQAGGSLRLSCAASGRIFNSNTMGWYRQAPGKERELVAAITYSGGSTYYADSVKGRFSISRDNAKNTVYLQMNSLKPEDTAVYYCAASYYYGRRYDYWGQGTQVTVSS | low polyreactivity
QVQLVESGGGLVQAGGSLRLSCAASGRIFNSYAMGWYRQAPGKERELVAAISSGGSTYYADSVKGRFTFSRDNAKNTVYLQMNSLKPEDTAVYYCADRIWTGRGRKLGYGYDYWGQGTQVTVSS | low polyreactivity
QVQLVESGGGLVQAGGSLRLSCAASGRIFNVNALGWYRQAPGKERELVAAINWSGGRTYYADSVKGRFTISRDNAKNTVYLQLNSLKPEDTAVYYCAADTRYPYRAYDYWGQGTQVTVAS | high polyreactivity
QVQLVESGGGLVQAGGSLRLSCAASGRIFNVYAMGWYRQAPGKERELVASITSAGSTYYADSVKGRFTISRDNAKITVYLQMNSLKPEDTAVYYCAADSYSVYYYTYDSWGQGTQVTVSS | low polyreactivity
QVQLVESGGGLVQAGGSLRLSCAASGRIFNVYAMGWYRQAPGKERELVASITSAGSTYYADSVKGRFTISRDNAKNTVYLQMNSLKPEDTPVYDCAADSYSVYYYTYDSWGQGTQVTVSS | low polyreactivity
QVQLVESGGGLVQAGGSLRLSCAASGRIFNYNAMGWYRQAPGKEREFVATISGRAGRTYYADSVKGRFTISRDNAKNTVYLQMNSLKPEDTAVYYCNAGQWRYPGLYYYWGQGTQVTVSS | high polyreactivity
QVQLVESGGGLVQAGGSLRLSCAASGRIFNYYAMGWYRQAPGKERELVAAINSGGSTYADSVKGRFTISRDNAKNTVYLQMNSLKPEDTAVYYSAKDGQLQSGRERPSGYDHWGQGTQVTVSS | low polyreactivity
QVQLVESGGGLVQAGGSLRLSCAASGRIFPDNTLGWYRQAPGKERELVAVITYSGGSTYYADSVKGRFTISRDNAKNTVYLQMNSLKPEDTAVYYCAARDYYIWFAEVDSWGQGTQVTVSS | low polyreactivity
QVQLVESGGGLVQAGGSLRLSCAASGRIFPGNAMGGYRQAPGKERELVATISRIGGSTYADSVKGRFTISRDNAKNTVYLQMNSLKPEDTAVYYCAKTWVSRDVEYDYWGQGTQVTVSS | low polyreactivity
QVQLVESGGGLVQAGGSLRLSCAASGRIFPGNAMGWYRQAPGKEREFVAAINTRGGITYYADSVKGRFTISRDNAKNTVYLQMNSLKPEDTAVYYCARTYYPVDGEYDYWGQGTQVTVSS | low polyreactivity
